Experimental data published in patent US11130783B2, “CD40 targeted peptides and uses thereof” (Regents of the University of Minnesota, priority 2018, dated 2021).
Entries after “also recorded” stand apart in the source; their conditions may differ.

Experiments:
recombinant human CD40 = molecular target: T1, recombinant human CD40 (Homo sapiens, UniProt P25942); test: ELISA for specificity of peptide binding to CD40; conditions: for binding affinity to CD40 by ELISA: FLAG-tagged rhsCD40 1 μg/ml, optical density at 450 nm; for affinity to bind to CD40 compared to the control Peptide 1: summary of the study
T1 construct: probed with FLAG-tagged rhsCD40 (1 μg/ml; Alexis); purchased Alexis
Protocol: Binding of the identified peptides to CD40 was analyzed by ELISA. Briefly, plates were coated with […] and then incubated with identified peptides and detected using Flag-tagged rhsCD40.
In order to confirm the specificity of the peptides to interfere with CD40:CD154 interaction, the specificity of peptides 1-7 as listed in table 1 to bind to human […] by ELISA was tested. Briefly, 96 well ELISA (Nunc Immunolon) plates were coated with the peptides in carbonate buffer. The wells are washed and probed with FLAG-tagged rhsCD40 (1 μg/ml; Alexis) and developed with HRP conjugated rabbit anti-FLAG antibody. The plates were washed and the enzymatic activity was determined using 3,3′,5,5′-tetramethyl-benzidine substrate for 15 minutes and the reaction was stopped by the addition of 2 M H2SO4, and optical density was measured at 450 nm, with the correction wavelength set at 620 nm.

[1] = molecular target: T2, CD40 on mononuclear cells (Macaca mulatta, UniProt A0ACM8QRX8); test: Binding of fluorochrome tagged CD40 targeting peptides to PBMC by flow cytometry; set-up: species or system Rhesus macaques; conditions: 5 μM fluorochrome tagged peptide, 30 minutes at 4° C.
T2 construct: peripheral blood mononuclear cells (PBMC) purified from 2 Rhesus macaques (RM); endogenous in cells; host or cells: PBMC from Rhesus macaques
Protocol: Binding of the CD40 targeting peptides was analyzed by incubating 5 μM of various fluorochrome tagged CD40 interacting peptides with PBMC from rhesus monkeys for 30 minutes at 4° C. and analyzed by flow cytometry.
In order to screen the ability of the cyclic peptides to bind to CD40, peripheral blood mononuclear cells (PBMC) purified from 2 Rhesus macaques (RM) were incubated with 5 μM of fluorochrome tagged CD40 interacting peptides, Peptide 1-7 listed in Table 1 for 30 minutes at 4° C. The cells were washed 3× in PBS and analyzed by flow cytometry. Stained cells were acquired on a 3-laser BD Canto II instrument (BD Bioscience). A minimum of 200,000 events were acquired with FACSDIVA 6.1.3. Mean fluorescence intensity of the peptide binding to the cells were determined using FlowJo 10.1. software (Tree Star; Ashland, OR, USA). […] 1-7 bind to the PBMC but at various intensities, confirming the ability of the synthetic peptides to bind to CD40 on mononuclear cells.

CD4, CD8 and CD20 cells = test: One-way CFSE mixed lymphocyte reaction (MLR), T and B cell proliferation; format: cell-based, Rhesus macaques; conditions: peptides at 30 μM, 6 days, CFSE-low cells, PBMC from 5 RM
Protocol: The ability of the CD40 targeting peptides to block CD40-CD40L signaling and inhibit T and B cell proliferation was assessed in a one-way CFSE-MLR. Each of the FIGS. 3A-3E show results of CFSE-MLR performed on PBMC obtained from a different Rhesus monkey. […] The levels of T cell and B cell proliferation was 35-46% in all the 5 animals and for sake clarity was capped at 25% in the figure for better visualization.
In order to determine the functional effect of co-stimulation blockade with peptides targeting CD40, one-way mixed lymphocyte reactions (MLR) was performed. CFSE-labeled PBMC from 5 different RM were stimulated with irradiated PBMC for 6 days. Stimulation with PHA was used as positive control. […] The cells were incubated in the presence of peptides at 30 μM. Following stimulation, PBMC were stained with antibodies specific for CD4, CD8 and CD20 and proliferating cells were quantitated by determining the frequency of CFSE-low CD4, CD8 and CD20 cells. Stained cells were acquired on a 3-laser BD Canto II instrument (BD Bioscience). A minimum of 200,000 events were acquired with FACSDIVA 6.1.3. FACS analysis was performed with FlowJo Version 10 software.

B cells = test: Peptide blocking of B cell activation by recombinant hCD40L (MHC class II expression); format: cell-based, Rhesus macaques; conditions: peptides at 30 μM, pre-incubation then recombinant hCD40L
Protocol: The ability of the newly identified peptides to block B cell activation by CD40L was analyzed in a peptide blocking study. Briefly, B cells were pre-incubated with newly identified peptides for 30 minutes before stimulation with rhCD40L. Activation of the B cells was analyzed by measuring the expression levels of MHC class II molecules on the cell surface by flow cytometry.
The ability of CD40-binding peptides 1-7 as listed in Table 1 to block B cell activation was assessed by analyzing the expression of MHC class II molecules on the B cell when subsequently incubated in the presence of recombinant hCD40L. Briefly, B cells were purified from 3 RM PBMC by magnetic sorting. B cells were incubated with peptides at 30 μM for 15 minutes at 37° C., then activated for 30 minutes with recombinant hCD40L, and then analyzed for expression of MHC class II by staining the cells with specific antibody. Stained cells were acquired on a 3-laser BD Canto II instrument (BD Bioscience). A minimum of 200,000 events were acquired with FACSDIVA 6.1.3. FACS analysis was performed with FlowJo Version 10 software.

T1 sequence (P25942 21-193 limits assumed): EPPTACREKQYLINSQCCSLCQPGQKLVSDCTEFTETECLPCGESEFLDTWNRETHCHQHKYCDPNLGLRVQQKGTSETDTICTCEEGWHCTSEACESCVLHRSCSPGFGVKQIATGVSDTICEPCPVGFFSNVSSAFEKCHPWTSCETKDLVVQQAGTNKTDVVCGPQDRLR
T2 sequence (A0ACM8QRX8 21-278): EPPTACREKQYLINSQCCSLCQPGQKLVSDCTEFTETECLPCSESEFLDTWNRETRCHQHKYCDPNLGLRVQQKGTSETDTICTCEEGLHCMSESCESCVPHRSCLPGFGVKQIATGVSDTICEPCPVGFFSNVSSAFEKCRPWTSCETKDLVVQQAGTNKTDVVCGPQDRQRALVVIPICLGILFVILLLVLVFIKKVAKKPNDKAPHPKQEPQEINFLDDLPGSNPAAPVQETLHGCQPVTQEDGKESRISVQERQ

Row | Sequence | binding affinity to CD40 by ELISA (recombinant human CD40) | binding to PBMC / mononuclear cells (mean fluorescence intensity) [1] | suppression of T and B cell (CD4, CD8, CD20) proliferation (CD4, CD8 and CD20 cells) | suppression of T and B cell (CD4, CD8, CD20) proliferation (CD4, CD8 and CD20 cells; listed as Peptide#2) | ability to block B cell activation (MHC class II expression) (B cells) | affinity to bind to CD40 compared to the control Peptide 1 (recombinant human CD40) | suppression of T and B cell (CD4, CD8, CD20) proliferation (CD4, CD8 and CD20 cells; listed as Peptide #3)
1 | VLNWADKAYFTMSQN [Peptide 4] | lowest binding affinity | – | – | – | – | – | –
2 | VLQWAEKGYYTMSNN [Peptide 1, reference compound] | high binding affinity | high binding affinity | – | – | – | – | –
3 | VLQWAERGFYTTSNN [Peptide 2] | specific binding to human CD40 | – | higher efficacy compared to the other peptides; also recorded: complete abrogation of T and B cell proliferation | inhibited T and B cell proliferation significantly better than the CD40 targeting peptide identified earlier | complete abrogation of T and B cell proliferation as well as activation of B cells | higher affinity | –
4 | VVQWAEKGYYTMSQN [Peptide 7] | specific binding to human CD40 | least binding affinity | – | – | – | – | –
5 | LVNWADKAFYTTSNN [Peptide 5] | – | – | complete abrogation of T and B cell proliferation | – | complete abrogation of T and B cell proliferation as well as activation of B cells | higher affinity | –
6 | VVQWAEKGFFTMSNN [Peptide 3] | specific binding to human CD40 | high binding affinity | higher efficacy compared to the other peptides; also recorded: complete abrogation of T and B cell proliferation | – | complete abrogation of T and B cell proliferation as well as activation of B cells | higher affinity | inhibited T and B cell proliferation significantly better than the CD40 targeting peptide identified earlier
